Assay [1] addresses T1, human ABCG2 (UniProt Q9UNQ0 1-655).
T1 chain: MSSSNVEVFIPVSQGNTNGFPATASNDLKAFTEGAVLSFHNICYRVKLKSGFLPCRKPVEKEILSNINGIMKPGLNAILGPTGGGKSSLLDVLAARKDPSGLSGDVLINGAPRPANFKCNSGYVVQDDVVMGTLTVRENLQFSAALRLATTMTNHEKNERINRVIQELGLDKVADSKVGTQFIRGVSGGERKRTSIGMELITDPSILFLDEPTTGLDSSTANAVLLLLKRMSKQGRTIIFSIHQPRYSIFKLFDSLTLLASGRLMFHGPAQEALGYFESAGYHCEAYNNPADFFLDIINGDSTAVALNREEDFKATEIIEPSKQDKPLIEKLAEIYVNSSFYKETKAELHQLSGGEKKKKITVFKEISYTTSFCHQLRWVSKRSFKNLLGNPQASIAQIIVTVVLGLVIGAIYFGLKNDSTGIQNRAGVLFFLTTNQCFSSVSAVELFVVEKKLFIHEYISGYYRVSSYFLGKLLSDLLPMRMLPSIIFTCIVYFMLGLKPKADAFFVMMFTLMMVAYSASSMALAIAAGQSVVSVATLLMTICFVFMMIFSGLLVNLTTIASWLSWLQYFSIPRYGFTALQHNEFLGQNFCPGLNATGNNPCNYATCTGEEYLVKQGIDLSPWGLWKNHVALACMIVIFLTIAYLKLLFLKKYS
In words: FACS cell binding (MFI).

Assay [2] concerns the target T1, human ABCG2. In words: FACS cell binding.
Assay [3] concerns the target T2, cynomolgus ABCG2 (Macaca fascicularis) (UniProt Q5MB13 1-654).
T2 chain: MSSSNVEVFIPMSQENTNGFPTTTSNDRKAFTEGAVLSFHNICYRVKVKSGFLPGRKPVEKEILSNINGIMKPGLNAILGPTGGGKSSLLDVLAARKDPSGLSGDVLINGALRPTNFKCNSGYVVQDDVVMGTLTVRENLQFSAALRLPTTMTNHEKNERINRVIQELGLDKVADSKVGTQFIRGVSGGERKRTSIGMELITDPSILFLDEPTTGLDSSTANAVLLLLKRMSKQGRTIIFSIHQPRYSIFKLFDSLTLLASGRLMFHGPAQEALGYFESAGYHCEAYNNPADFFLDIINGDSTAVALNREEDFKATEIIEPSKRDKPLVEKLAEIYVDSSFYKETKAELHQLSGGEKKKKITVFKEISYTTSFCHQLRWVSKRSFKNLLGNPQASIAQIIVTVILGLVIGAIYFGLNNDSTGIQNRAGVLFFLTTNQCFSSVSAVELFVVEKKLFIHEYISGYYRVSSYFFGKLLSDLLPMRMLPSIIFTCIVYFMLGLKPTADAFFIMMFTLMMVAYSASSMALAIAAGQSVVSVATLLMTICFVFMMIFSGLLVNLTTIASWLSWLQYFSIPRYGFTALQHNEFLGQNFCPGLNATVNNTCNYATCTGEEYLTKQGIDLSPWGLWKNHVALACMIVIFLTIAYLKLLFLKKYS
The experiment in a line: FACS binding to 293T cells. On the technique in general: A flow cytometer gives signals particle by particle.

In assay [4] the target is T1, human ABCG2. In words: FACS binding to 293T cells.
The target of assay [5] is T2, cynomolgus ABCG2 (Macaca fascicularis). The experiment in a line: FACS binding to 293T.cG2 cells.
For assay [6] the target is unchanged. The experiment in a line: FACS binding to 293T cells.
Assay [7] deals with T1, human ABCG2. In words: FACS binding to 293T cells.
In assay [8] the target is T1, human ABCG2. The experiment in a line: FACS binding to 293T.hG2 cells.
Assay [9] addresses T2, cynomolgus ABCG2 (Macaca fascicularis). The experiment in a line: cell binding.
The target of assay [10] is T1, human ABCG2. The experiment in a line: cell binding.
The next assay has as its target G2_336. In words: FACS binding to 293T cells.
Another assay addresses G2_709. In words: FACS binding to 293T cells.
The next assay deals with G2_377. In words: FACS binding to 293T cells.
For a further assay, the target named is G2_656. The experiment in a line: FACS binding to 293T cells.
The target of another assay is G2_418. In words: FACS binding to 293T cells.
Another assay concerns the target G2_639. The experiment in a line: FACS binding to 293T cells.
For assay [11], the target named is T2, cynomolgus ABCG2 (Macaca fascicularis). The experiment in a line: FACS binding to 293T cells.
For assay [12], the target named is T1, human ABCG2. The experiment in a line: FACS binding to 293T cells.
Assay [13] addresses T2, cynomolgus ABCG2 (Macaca fascicularis). In words: FACS binding to 293T cells.
The target of assay [14] is T1, human ABCG2. In words: FACS binding to 293T cells.

The text below walks through data of patent US20230212305A1 (published 2023).

The EC50 is the midpoint of the concentration-response curve. Read a low EC50 as greater potency. For orientation: Kd means the concentration at which binding is half-saturated. Low values mean a tighter complex, high ones a looser complex.

B1: G2.302 mouse (antibody, V domains shown)
VH: QIQLQQSGPELVRPGASVKISCKASGYTFTDYYINWVKQRPGQGLEWIGWIYPGNVNVKYNEKFKGKATLTVDTSSSTGYMQLRSLTSEDSAVYFCARSIGLRYFDNWGQGTTLTVSS
VL: EKVLTQSPAIMSASLGEKVTMSCRASSSVHYMYWHQQKSDASPRLWIYYTSNLAPGVPARFSGSGSGNFYSLTISSVEDEDGATYYCQQFTTSTWTFGGGTKLEIK
B1: the EC50 with human ABCG2 [1] came to 18.5 nM. In the assay with human ABCG2 [2], this molecule showed a Kd of 33.6 nM.

B2: anti-ABCG2 antibody 5D3 (antibody, V domains shown)
VH: QVQLQESGPGLVKPSQSLSLTCTVTGFSITSDYAWNWIRQFPGKKLEWMGYINFDGGTTYNPSLRGRISITRDTSKNQFFLQLRSVTPEDTATYYCATFYGAKGTLDYWGQGTSVTVSS
VL: DIVLTQSPSSFSVSLGDRVTISCKASGYILNRLAWYQQKPGNAPRLLISGATSLETGFPSRFSGTGSGKDYTLSISSLQTEDVGTYYCQQYWSTPWTFGGGTKLEIK
For B2, the equilibrium dissociation constant (Kd) in assay [3] was found to be 253 nM; with human ABCG2 [4] it was 15.7 nM; in [5] it was 99.2 nM; in [6], 99.2 nM; in the assay with human ABCG2 [7], 37.7 nM; with human ABCG2 [8], 37.7 nM. Moreover, the EC50 with human ABCG2 [1] was 8.5 nM; in assay [9], 131 nM; in the assay with human ABCG2 [10] it was 4.9 nM.

B3: G2.173 Humanized 3 (antibody, V domains shown)
VH: EVQLVQSGAEVKKPGASVKVSCKASGFNIKDDYVHWVRQAPGQGLEWIGRIDPASGNTRYAPKFRGRATMTADTSISTAYMELSRLRSDDTAVYYCSPPLWVGGFAYWGQGTLVTVSS
VL: DVVMTQSPLSLPVTLGQPASISCRSSQSLVHSDVNTYLHWYQQRPGQSPRLLIYKVSNRFSGVPDRFSGSGSGTDFTLKISRVEAEDVGVYFCSQTTHVPYTFGGGTKLEIK
As to B3, in the assay with human ABCG2 [2], the Kd was 33.5 nM.

B4: cG2 (other)
chain: MSSSNVEVFIPMSQENTNGFPTTTSNDRKAFTEGAVLSFHNICYRVKVKSGFLPGRKPVEKEILSNINGIMKPGLNAILGPTGGGKSSLLDVLAARKDPSGLSGDVLINGALRPTNFKCNSGYVVQDDVVMGTLTVRENLQFSAALRLPTTMTNHEKNERINRVIQELGLDKVADSKVGTQFIRGVSGGERKRTSIGMELITDPSILFLDEPTTGLDSSTANAVLLLLKRMSKQGRTIIFSIHQPRYSIFKLFDSLTLLASGRLMFHGPAQEALGYFESAGYHCEAYNNPADFFLDIINGDSTAVALNREEDFKATEIIEPSKRDKPLVEKLAEIYVDSSFYKETKAELHQLSGGEKKKKITVFKEISYTTSFCHQLRWVSKRSFKNLLGNPQASIAQIIVTVILGLVIGAIYFGLNNDSTGIQNRAGVLFFLTTNQCFSSVSAVELFVVEKKLFIHEYISGYYRVSSYFFGKLLSDLLPMRMLPSIIFTCIVYFMLGLKPTADAFFIMMFTLMMVAYSASSMALAIAAGQSVVSVATLLMTICFVFMMIFSGLLVNLTTIASWLSWLQYFSIPRYGFTALQHNEFLGQNFCPGLNATVNNTCNYATCTGEEYLTKQGIDLSPWGLWKNHVALACMIVIFLTIAYLKLLFLKKYS
For the molecule B4, the dissociation constant Kd in the assay with G2_336 worked out at 410 nM; in the assay with G2_709 it was 41.4 nM; in the assay with G2_377, 31.4 nM; with G2_656, 272 nM; with G2_418, 38.8 nM; in the assay with G2_639, 14.3 nM.

B5: G2.748 rat (antibody, V domains shown)
VH: QVSLKESGPGMLQPSKTLSLTCSFSGFSLSTSGMVVNWIRQPSGKSLEWLAAIDWDGDKYYNPSLKHRLTVSKDTSNTQVVLKITSVDTADTATYYCARSIAPYRGWFGYWGQGTLVTVSS
VL: EIVLIQSPSSLPASLGERVTIICRASQDIGNNLNWYQQKPDGTIKPLIYFTSNFQSGVPSSFSGSRSGTDFSLTISSLEAEDFAMYYCQQDASLPWTFGGGTKLEIK
Regarding B5, the Kd (in assay [5]; in assay [6]; with human ABCG2 [7]; in the assay with human ABCG2 [8]) was 0.5 nM in each case.

B6: G2.636 rat (antibody, V domains shown)
VH: EVKLVESGGGLVQPGRSLKLSCAASGFTFSRFYMAWVRQAPTKGLEWVAHISHGGDTTYYRDSVKGRFTISRDNAKSTLFLQMDSLRSEDTATYYCTTSAAPWNYVMDGWGLGASVTVSS
VL: DIVMTQSPSLLSASVGDRVTLTCKGSQNINNFLAWYQQKLGEAPKLLIYKTNSLHTGIPSRFSGSGSGTDYTLTISSLHSEDLATYYCYQYNNGYTFGAGTKLELK
For the molecule B6, the dissociation constant (Kd) in assay [11] turned out to be 62.5 nM; with human ABCG2 [12], 10.9 nM. Also, the EC50 in assay [9] turned out to be 341 nM; in the assay with human ABCG2 [10] it was 80 nM.

B7: G2_392 (antibody, V domains shown)
VH: VQLVESGPDLVQPSQTLSLTCTVSGLSLTSTGVSWIRQPPGRGLEWMGVIWSNGGTDYNSAIRSRLSISRDTSKSQVFLKMNSLQTEDTAMYFCARAIAASYIMDAWGQGASVTVSS
VL: DIQMTQSPPSLSASLGDKVTITCQASQNIHKYIAWYRHKPGKPPRLLIRYTSTLQSGTPSRFSGSGSGRDYSFSISNVESEDIASYYCLQYVNLWTFGGGTKLELK
With B7, the dissociation constant Kd came to 93.4 nM in [13] and 35.3 nM in the assay with human ABCG2 [14].

B8: G2_746 (antibody, V domains shown)
VH: VKLEESGPGLVLPSQTLSLSCTVSGLSLISNSISWIRQPPGKGLEWMGVMWNNGGTDYNSAIKSRLSISRDTSKSQVFLKMNSLQTEDTAMYFCARGYSSYIFDYWGQGASVTVSS
VL: DILMTQSPPSLSASLGDKVTITCQASQNIHGYIAWYQQKPGRLPRLLIRLTSTLESGTPSRFSGSGSGRDYSFSISNVESEDLASYYCLQYVNLWTFGGGTKLELK
Regarding B8, the dissociation constant Kd in assay [11] worked out at 66.4 nM; with human ABCG2 [12] it was 22.3 nM.

B9: G2_360 (antibody, V domains shown)
VH: QVQLRESGPGLVQPSQTLSLTCTVSGLSLTSNSISWIRQPPGKGLEWMGVIWSTGGTDYNSAIKSRLSISRDTSKSQVFLKMNSLQTEDTAMYFCARAIAASAVMDAWGQGASVTVSS
VL: DIQMTQSPPSLSASLGDKVTITCQASQNIHKYIGWYQQKPGKAPRLLIRYTSTLESGTPSRFSGSGSGRYYSFSISNVESEDIASYYCLQYVNLWTFGGGTKLELK
In the case of B9, the equilibrium dissociation constant (Kd) is 156 nM in assay [13] and 23.7 nM with human ABCG2 [14].
